According to PMC7570257 (Biochemistry, 2015):

B1: EGFP-tagged tPRMT8 (domain or fragment, human, UniProt Q9NR22 61-394, looked up)
chain: MSKLLNPEEMTSRDYYFDSYAHFGIHEEMLKDEVRTLTYRNSMYHNKHVFKDKVVLDVGSGTGILSMFAAKAGAKKVFGIECSSISDYSEKIIKANHLDNIITIFKGKVEEVELPVEKVDIIISEWMGYCLFYESMLNTVIFARDKWLKPGGLMFPDRAALYVVAIEDRQYKDFKIHWWENVYGFDMTCIRDVAMKEPLVDIVDPKQVVTNACLIKEVDIYTVKTEELSFTSAFCLQIQRNDYVHALVTYFNIEFTKCHKKMGFSTAPDAPYTHWKQTVFYLEDYLTVRRGEEIYGTISMKPNAKNVRDLDFTVDLDFKGQLCETSVSNDYKMR
B2: chimera tPRMT8C (β15 of tPRMT8 replaced with that of Hmt1) (domain or fragment, human | yeast)
chain: MSKLLNPEEMTSRDYYFDSYAHFGIHEEMLKDEVRTLTYRNSMYHNKHVFKDKVVLDVGSGTGILSMFAAKAGAKKVFGIECSSISDYSEKIIKANHLDNIITIFKGKVEEVELPVEKVDIIISEWMGYCLFYESMLNTVIFARDKWLKPGGLMFPDRAALYVVAIEDRQYKDFKIHWWENVYGFDMTCIRDVAMKEPLVDIVDPKQVVTNACLIKEVDIYTVKTEELSFTSAFCLQIQRNDYVHALVTYFNIEFTKCHKKMGFSTAPDAPYTHWKQTVFYLEDYLTVRRGEEIYGTISMKPNAKNVRDLDFTVDLDFKIDGNSRSRKNEGSYLMH

Assays:
native gel or EMSA = biological target: the molecule itself; test: native gel or EMSA
AUC = biological target: the molecule itself; test: AUC

Protein	stoichiometry N (native gel or EMSA)	stoichiometry N (AUC)
B1	4	–
B2	–	4
